In the test the target is GAPS4a of GAPS4^MAVP-R (Vibrio parahaemolyticus MAVP-R) (Vibrio parahaemolyticus MAVP-R). In words: SEC-MALS.

The results in this text go back to article doi:10.1101/2025.09.07.674715.

“GAPS4b of GAPS4^MAVP-R (Vibrio parahaemolyticus MAVP-R) (natural protein)”: the stoichiometry N (GAPS4b per GAPS4a (2:2)) was 1.
